Results published in article PMC12758336.

Columns and labels:
[1] = target: NRBF2_5A (UniProt Q8VCQ3); experiment: co-IP; competitive co-IP: FLAG-tagged bait and GFP-tagged competitor transiently over-expressed in HEK293T; anti-FLAG M2 magnetic beads; immunoblot for endogenous PIK3R4/VPS15 and PIK3C3/VPS34; Figure 6C also after 100 nM rapamycin (2 h) or EBSS medium (2 h)
[2] = target: NRBF2_3A (UniProt Q8VCQ3); experiment: as above

endogenous PIK3R4/VPS15 pulled down, against wild type (% less than wild type) [1]: 50
endogenous PIK3R4/VPS15 pulled down, against wild type (% less than wild type) [2]: 50
Substance: endogenous PIK3R4/VPS15 (from UniProt Q99570 1-1358) (natural protein)
